The results in this text go back to PMC12499469.

The assay deals with GRB2 (human (cDNA from 293T or brain glioma cells)), P62993. As to the kind of experiment: molecular recruitment colocalization (MRC), live-cell fluorescence imaging; bait fused to scFv and a fluorescent protein, recruited by dCas9-10xGCN4 (SunTag) and sgRNA MUC4-272kb to a repeated genomic locus in SunTag10x-dCas9-HEK293T cells; preys fused to mCherry or mTagBFP2 with NLS; colocalized spots imaged 24 h after transfection, 37 °C. Particulars: remark: other sources report otherwise.
Sequence of GRB2 (human (cDNA from 293T or brain glioma cells)), P62993 (P62993 whole entry, the tested form may be a part): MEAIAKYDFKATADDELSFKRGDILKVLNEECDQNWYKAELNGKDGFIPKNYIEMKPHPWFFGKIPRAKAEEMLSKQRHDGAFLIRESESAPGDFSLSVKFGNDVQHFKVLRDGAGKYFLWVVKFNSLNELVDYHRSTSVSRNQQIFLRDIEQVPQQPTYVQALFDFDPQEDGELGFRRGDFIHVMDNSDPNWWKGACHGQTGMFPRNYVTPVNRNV

B1: SOS1, Q07889 1-1333 (natural protein)
chain: MQAQQLPYEFFSEENAPKWRGLLVPALKKVQGQVHPTLESNDDALQYVEELILQLLNMLCQAQPRSASDVEERVQKSFPHPIDKWAIADAQSAIEKRKRRNPLSLPVEKIHPLLKEVLGYKIDHQVSVYIVAVLEYISADILKLVGNYVRNIRHYEITKQDIKVAMCADKVLMDMFHQDVEDINILSLTDEEPSTSGEQTYYDLVKAFMAEIRQYIRELNLIIKVFREPFVSNSKLFSANDVENIFSRIVDIHELSVKLLGHIEDTVEMTDEGSPHPLVGSCFEDLAEELAFDPYESYARDILRPGFHDRFLSQLSKPGAALYLQSIGEGFKEAVQYVLPRLLLAPVYHCLHYFELLKQLEEKSEDQEDKECLKQAITALLNVQSGMEKICSKSLAKRRLSESACRFYSQQMKGKQLAIKKMNEIQKNIDGWEGKDIGQCCNEFIMEGTLTRVGAKHERHIFLFDGLMICCKSNHGQPRLPGASNAEYRLKEKFFMRKVQINDKDDTNEYKHAFEIILKDENSVIFSAKSAEEKNNWMAALISLQYRSTLERMLDVTMLQEEKEEQMRLPSADVYRFAEPDSEENIIFEENMQPKAGIPIIKAGTVIKLIERLTYHMYADPNFVRTFLTTYRSFCKPQELLSLIIERFEIPEPEPTEADRIAIENGDQPLSAELKRFRKEYIQPVQLRVLNVCRHWVEHHFYDFERDAYLLQRMEEFIGTVRGKAMKKWVESITKIIQRKKIARDNGPGHNITFQSSPPTVEWHISRPGHIETFDLLTLHPIEIARQLTLLESDLYRAVQPSELVGSVWTKEDKEINSPNLLKMIRHTTNLTLWFEKCIVETENLEERVAVVSRIIEILQVFQELNNFNGVLEVVSAMNSSPVYRLDHTFEQIPSRQKKILEEAHELSEDHYKKYLAKLRSINPPCVPFFGIYLTNILKTEEGNPEVLKRHGKELINFSKRRKVAEITGEIQQYQNQPYCLRVESDIKRFFENLNPMGNSMEKEFTDYLFNKSLEIEPRNPKPLPRFPKKYSYPLKSPGVRPSNPRPGTMRHPTPLQQEPRKISYSRIPESETESTASAPNSPRTPLTPPPASGASSTTDVCSVFDSDHSSPFHSSNDTVFIQVTLPHGPRSASVSSISLTKGTDEVPVPPPVPPRRRPESAPAESSPSKIMSKHLDSPPAIPPRQPTSKAYSPRYSISDRTSISDPPESPPLLPPREPVRTPDVFSSSPLHLQPPPLGKKSDHGNAFFPNSPSPFTPPPPQTPSPHGTRRHLPSPPLTQEVDLHSIAGPPVPPRQSTSQHIPKLPPKTYKREHTHPSMHRDGPPLLENAHSS
Regarding B1, the SNR ratio (GRB2/SOS1 puncta) came out at 1.46.
